The target of test [1] is H1.0–K63-Ub2 chromatosome (CH2) (UniProt P07305).
Test [2] deals with H1.0–K63-Ub3 chromatosome (CH3) (UniProt P07305).
For test [3], the target named is H1.0–Ub chromatosome (CH1) (UniProt P07305).
Test [4] addresses unmodified H1.0-containing chromatosome (CH0) (UniProt P07305).

Substance “RNF168^1–193 (from UniProt Q8IYW5 1-193) (domain or fragment)” returned an H2A conversion in the in vitro ubiquitylation assay, 5 and 10 min (13% and 25%) in test [1] of 25%. The substance further displayed an H2A conversion in the in vitro ubiquitylation assay, 5 and 10 min (28% and 48%) in test [2] of 48%. This substance also gave an H2A conversion in the in vitro ubiquitylation assay, 5 and 10 min (2% and 3%) in test [3] of 3%. In test [4], this substance came in with an H2A conversion in the in vitro ubiquitylation assay, 5 and 10 min (3% and 5%) of 5%.

These data come from publication doi:10.1101/2024.07.22.604500.
